Legend:
[1] = molecular target: T1, PD-L1-HIS recombinant protein (human, UniProt Q9NZQ7 19-238, limits assumed); experiment: SPR (Biacore 8K), antibody captured on chip, PD-L1-HIS analyte 2.5-80 nM, 1:1 binding model
T1 construct: not shown: His tag
Description: The chip surface was equilibrated with HBS-EP buffer at a flow rate of 10 μl/min for 5 min, and then a 1:1 mixture of “NHS+EDC” was injected at a flow rate of 10 μl/min for 420 sec to activate the chip. The capture antibody (goat anti-murine IgG) diluted in 10 mM sodium acetate buffer was injected for about 420 sec at a flow rate of 10 μl/min for coupling, and finally ethanolamine was injected for 420 sec at a flow rate of 10 μl/min to block the surface.
Three pre-cycles were performed with the HBS-EP buffer as a sample to balance the chip to stabilize the baseline. The antibody diluted in HBS-EP buffer was injected for 30 sec at a flow rate of 10 μl/min (where the antibody-antigen binding signal was controlled to about 100 RU by adjusting the capture time between 0-5 min), and then the chip was equilibrated with the buffer for 1 min. The low-concentration antigen 2.5 nM PD-L1-HIS was injected at a flow rate of 30 μl/min for 240/300 seconds, to allow the antigen to bind to the antibody, and then the buffer was injected at a flow rate of 30 μl/min for 720/600 seconds for dissociation. 50 mM HCl were injected three times each for 15 s at a flow rate of 100 μl/min for regeneration, to complete one cycle. The antigen concentration was changed (such as 5 nM PD-L1-HIS) to carry out the cycle for measurement at a next gradient concentration until all gradient concentrations (2.5 nM, 5 nM, 10 nM, 20 nM, 40 nM, 80 nM PD-L1-HIS) and the replicate (such as 10 nM PD-L1-HIS) were tested.
The experimental data was double subtracted (minus the background values of the control channel and zero concentration), and fitted to the “1:1 binding” model in the Biacore 8K evaluation software. Biacore 8K was used to determine the affinity of the antibody to the PD-L1-HIS recombinant protein.

PD-L1/Fc [2] = molecular target: T2, PD-L1/Fc (UniProt Q9NZQ7 19-238, limits assumed); experiment: SPR (Biacore 8K), prokaryotically expressed antibody as ligand, PD-L1/Fc as analyte, 1:1 binding model
T2 construct: not shown: Fc part
T2 sequence (Q9NZQ7 19-238 limits assumed): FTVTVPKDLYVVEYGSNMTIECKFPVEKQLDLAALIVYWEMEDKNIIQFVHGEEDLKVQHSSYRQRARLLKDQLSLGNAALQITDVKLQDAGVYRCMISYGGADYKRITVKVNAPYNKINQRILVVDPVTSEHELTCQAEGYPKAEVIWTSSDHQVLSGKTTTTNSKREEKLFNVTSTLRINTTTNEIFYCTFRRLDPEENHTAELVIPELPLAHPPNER

human PD-L1 protein [3] = molecular target: T3, human PD-L1 protein (human, UniProt Q9NZQ7 19-238, limits assumed); experiment: ELISA on human PD-L1 protein; antibody kept at 40 C for 0 (D0), 7 (D7) or 14 (D14) days
T3 sequence (Q9NZQ7 19-238 limits assumed): as above
Description: The antibody samples were treated separately at 40° C., and then centrifuged to remove the pellet. Then the amount of remaining antibody was evaluated by ELISA. (test after treatment at 40° C. for 7 days (D7) and 14 days (D14) separately; for each test, the untreated sample (D0) stored at −80° C. is used as a control) (FIG. 3)

human PD-L1 protein [4] = molecular target: T3, human PD-L1 protein; experiment: ELISA on human PD-L1 protein; control antibody stored at -80 C
Description: (§1) The antibody samples were treated for 20 min at various temperature gradients respectively, and then centrifuged to remove the pellet. Then the amount of remaining antibody was evaluated by ELISA. (The temperature gradient includes: room temperature, 30° C., 40° C., 50° C., 60° C., 70° C., […]) (FIG. 4)

human PD-L1 protein [5] = molecular target: T3, human PD-L1 protein; experiment: ELISA on human PD-L1 protein; antibody treated for 20 min (overlapping curves, room temperature to 60 C by the legend, not told apart)
Description: as §1

PD-L1/Fc [6] = molecular target: T2, PD-L1/Fc; experiment: SPR (Biacore 8K), antibody as ligand, PD-L1/Fc as analyte, 1:1 binding model

T1 sequence (Q9NZQ7 19-238 limits assumed): as above

Kd [1] [nM] | koff [1] [s⁻¹] | kon [1] [M⁻¹ s⁻¹] | Kd (PD-L1/Fc [2]) [pM] | koff (PD-L1/Fc [2]) [s⁻¹] | kon (PD-L1/Fc [2]) [M⁻¹ s⁻¹] | Binder | other results
3.11 | 0.000714 | 230000 |  |  |  | AH01947 (antibody, human IgG1, V domains shown, also called mPD-L1Ab-CBM clone AH01947) VH: QVQLQESGPGLVKPSQTLSLTCTVSGYSITSGYTWHWIRQHPGKGLEWIGYIHYSGSTKYNPSLKSRVTISVDTSKNQFSLKLSSVTAADTAVYYCARNSLFASWGQGTLVTVSS VL: DIVLTQSPDSLAVSLGERATINCRASESVDTYGDSFMHWFQQKPGQPPKLLIYRASNLESGVPDRFSGSGSGTDFTLTISSLQAEDVAVYYCQQSNEAPYTFGGGTKLEIK | 
 |  |  | 36.7 | 1.9e-05 | 518000 | AH01950 (prokaryotically expressed antibody product) (Fab, V domains shown) VH: QVQLQESGPGLVKPSQTLSLTCTVSGYSITSGYTWHWIRQHPGKGLEWIGYIHYSGSTKYNPSLKSRVTISRDTSKNQFSLKLSSVTAADTAVYYCARNSLFASWGQGTLVTVSS VL: DIVLTQSPDSLAVSLGERATINCRASESVDTYGDSFMHWFQQKPGQPPKLLIYRASNLESGVPDRFSGSGSGTDFTLTISSLQAEDVAVYYCQQSNEAPYTFGGGTKLEIK | 
1.76 | 0.00037 | 210000 |  |  |  | AH01964 (antibody, human IgG1, V domains shown, also called mPD-L1Ab-CBM clone AH01964) VH: QVQLQESGPGLVKPSQTLSLTCTVSGYSITSGYTWHWIRQHPGKGLEWIGYIHYSGSTKYNPSLKSRVTISRDTSKNQFSLKLSSVTAADTAVYYCARNSLFASWGQGTLVTVSS VL: DIVMTQSPDSLAVSLGERATINCRASESVDTYGDSFMHWYQQKPGQPPKLLIYRASNLESGVPDRFSGSGSGTDFTLTISSLQAEDVAVYYCQQSNEAPYTFGGGTKL | 
 |  |  | 46.8 | 2.48e-05 | 530000 | AH01964 (prokaryotically expressed antibody product) (Fab, V domains shown) VH: QVQLQESGPGLVKPSQTLSLTCTVSGYSITSGYTWHWIRQHPGKGLEWIGYIHYSGSTKYNPSLKSRVTISRDTSKNQFSLKLSSVTAADTAVYYCARNSLFASWGQGTLVTVSS VL: DIVMTQSPDSLAVSLGERATINCRASESVDTYGDSFMHWYQQKPGQPPKLLIYRASNLESGVPDRFSGSGSGTDFTLTISSLQAEDVAVYYCQQSNEAPYTFGGGTKL | 
 |  |  | 43.9 | 1.58e-05 | 359000 | AH02030 (prokaryotically expressed antibody product) (Fab, V domains shown) VH: QVQLQESGPGLVKPSQTLSLTCTVTGYSITSGYTWHWIRQHPGKGLEWIGYIHYSGSTKYNPSLKSRFTITRDTSKNQFSLKLSSVTAADTAVYYCARNSLFASWGQGTLVTVSS VL: DIVLTQSPDSLAVSLGERATINCRASESVDTYGDSFMHWYQQKPGQPPKLLIYRASNLESGVPDRFSGSGSRTDFTLTISSLQAEDVAVYYCQQSNEAPYTFGGGTKLEIK | 
 |  |  | 82.2 | 4.38e-05 | 533000 | AH01947 (prokaryotically expressed antibody product) (Fab, V domains shown) VH: QVQLQESGPGLVKPSQTLSLTCTVSGYSITSGYTWHWIRQHPGKGLEWIGYIHYSGSTKYNPSLKSRVTISVDTSKNQFSLKLSSVTAADTAVYYCARNSLFASWGQGTLVTVSS VL: DIVLTQSPDSLAVSLGERATINCRASESVDTYGDSFMHWFQQKPGQPPKLLIYRASNLESGVPDRFSGSGSGTDFTLTISSLQAEDVAVYYCQQSNEAPYTFGGGTKLEIK | 
 |  |  | 56.8 | 1.93e-05 | 339000 | AH02029 (prokaryotically expressed antibody product) (Fab, V domains shown) VH: QVQLQESGPGLVKPSQTLSLTCTVTGYSITSGYTWHWIRQHPGKGLEWIGYIHYSGSTKYNPSLKSRVSISRDTSKNQFSLKLSSVTAADTAVYYCARNSLFASWGQGTLVTVSS VL: DIVLTQSPDSLAVSLGERATINCRASESVDTYGDSFMHWYQQKPGQPPKLLIYRASNLESGVPDRFSGSGSGTDFTLTISSLQAEDVAVYYCQQSNEAPYTFGGGTKLEIK | 
1.17 | 0.000216 | 185000 |  |  |  | AH02030 (antibody, human IgG1, V domains shown, also called mPD-L1Ab-5BM clone AH02030) VH: QVQLQESGPGLVKPSQTLSLTCTVTGYSITSGYTWHWIRQHPGKGLEWIGYIHYSGSTKYNPSLKSRFTITRDTSKNQFSLKLSSVTAADTAVYYCARNSLFASWGQGTLVTVSS VL: DIVLTQSPDSLAVSLGERATINCRASESVDTYGDSFMHWYQQKPGQPPKLLIYRASNLESGVPDRFSGSGSRTDFTLTISSLQAEDVAVYYCQQSNEAPYTFGGGTKLEIK | 
 |  |  | 0.0676 | 2.71e-08 | 401000 | AH02033 (prokaryotically expressed antibody product) (Fab, V domains shown) VH: QVQLQESGPGLVKPSQTLSLTCTVTGYSITSGYTWHWIRQHPGKGLEWMGYIHYSGSTKYNPSLKSRFTISRDTSKNQFSLKLSSVTAADTAVYYCARNSLFASWGQGTLVTVSS VL: DIVLTQSPDSLAVSLGERATINCRASESVDTYGDSFMHWFQQKPGQPPKLLIYRASNLESGIPDRFSGSGSGTDFTLTISSLQAEDVAVYYCQQSNEAPYTFGGGTKLEIK | 
 |  |  | 9.4 | 4.72e-06 | 502000 | AH01946 (prokaryotically expressed antibody product) (Fab, V domains shown) VH: QVQLQESGPGLVKPSQTLSLTCTVSGYSITSGYTWHWIRQHPGKGLEWIGYIHYSGSTKYNPSLKSRVTISRDTSKNQFSLKLSSMTAADTAVYYCARNSLFASWGQGTLVTVSS VL: DIVLTQSPDSLAVSLGERATINCRASESVDTYGDSFMHWFQQKPGQPPKLLIYRASNLESGVPDRFSGSGSGTDFTLTISSVQAEDVAVYYCQQSNEAPYTFGGGTKLEIK | 
 |  |  | 34.4 | 1.63e-05 | 474000 | AH01963 (prokaryotically expressed antibody product) (Fab, V domains shown) VH: QVQLQESGPGLVKPSQTLSLTCTVSGYSITSGYTWHWIRQHPGKGLEWIGYIHYSGSTKYNPSLKSRVTISRDTSKNQFSLKLSSVTAADTAVYYCARNSLFASWGQGTLVTVSS VL: DIVLTQSPDSLAVSLGERATINCRASESVDTYGDSFMHWYQQKPGQPPKLLIYRASNLESGVPDRFSGSGSGTDFTLTISSVQAEDVAVYYCQQSNEAPYTFGGGTKLEIK | 
0.903 | 0.000166 | 184000 |  |  |  | AH02033 (antibody, human IgG1, V domains shown, also called mPD-L1Ab-5BM clone AH02033) VH: QVQLQESGPGLVKPSQTLSLTCTVTGYSITSGYTWHWIRQHPGKGLEWMGYIHYSGSTKYNPSLKSRFTISRDTSKNQFSLKLSSVTAADTAVYYCARNSLFASWGQGTLVTVSS VL: DIVLTQSPDSLAVSLGERATINCRASESVDTYGDSFMHWFQQKPGQPPKLLIYRASNLESGIPDRFSGSGSGTDFTLTISSLQAEDVAVYYCQQSNEAPYTFGGGTKLEIK | 
1.27 | 0.000219 | 172000 |  |  |  | Chimeric antibody (antibody, V domains shown, also called mPD-L1Ab-Chim) VH: DVQLQESGPDLVKPSQSLSLTCTVTGYSITSGYTWHWIRQFPGNKLEWMGYIHYSGSTKYNPSLKSRFSITRDTSKNQFFLQLNSMTAEDTATYYCARNSLFASWGHGTLVTVSA VL: DIVLTQSPASLAVSLGQRATISCRASESVDTYGDSFMHWFQQKPGQPPKLLIYRASNLESGIPARFSGSGSRTDFTLTINPVEADDVATYYCQQSNEAPYTFGGGTKLEIK | EC50 (read off the curve) (human PD-L1 protein [3]): ~10 ng/mL; EC50 (read off the curve) (human PD-L1 protein [4]): ~10 ng/mL; EC50 (read off the curve) (human PD-L1 protein [5]): ~8 ng/mL
 |  |  |  |  |  | Chimeric antibody (as ranked in Table 2) (Fab, V domains shown) VH: DVQLQESGPDLVKPSQSLSLTCTVTGYSITSGYTWHWIRQFPGNKLEWMGYIHYSGSTKYNPSLKSRFSITRDTSKNQFFLQLNSMTAEDTATYYCARNSLFASWGHGTLVTVSA VL: DIVLTQSPASLAVSLGQRATISCRASESVDTYGDSFMHWFQQKPGQPPKLLIYRASNLESGIPARFSGSGSRTDFTLTINPVEADDVATYYCQQSNEAPYTFGGGTKLEIK | Kd (PD-L1/Fc [6]): 0.058 nM; koff (PD-L1/Fc [6]): 2.03e-05 s⁻¹; kon (PD-L1/Fc [6]): 349000 M⁻¹ s⁻¹

Source: patent US20220073618A1 (NANJING GENSCRIPT BIOTECH, published 2022)
